Experimental findings from paper PMC6213131, “Characterization of Properties and Transglycosylation Abilities of Recombinant α-Galactosidase from Cold-Adapted Marine Bacterium Pseudoalteromonas KMM 701 and Its C494N and D451A Mutants” (Marine Drugs, 2018) are described below.

Numbering of substitutions follows the chain as printed. In names and notes the source's numbering stands.

Substrate in this data set: O=[N+]([O-])c1ccc(O[C@H]2O[C@H](CO)[C@H](O)[C@H](O)[C@H]2O)cc1
As to the kind of experiment: purified protein. It is filed as biochemical, Pseudoalteromonas sp. KMM 701. Particulars: sodium phosphate (0.05 M in table footnote, 0.1 M in methods), pH 7.0, 20 °C.

B1: α-PsGal (Pseudoalteromonas sp. KMM 701) (protein)
chain: MADTKSFYRLDSVNSTVIFDCQSKTPALLYFGKRLSEQTTETMLTQLATRQEVKCAVVEEAPISLSPLLGEGFTGAPGLELVNDSIAWSVGPELQEVRQPSSATVEFVSVDKLRGIEVVHSITLDNNSDVLSAHTVLTNLGDSPLSVNFCAAPTFQLPDSVSKIVSFEGRWSNEFQRQSVDLVLGSFVRENRKGKTSHDVFPGLLVHNENAGEQHGECYGFHLGWSGNNKLRAELLAEGRRYVQMGELLLPGELTLAKGQTYQSPSIYGSFSSEGFSALSRNFHRFVKANLLSQAQREKARPVHYNTWEGIYFDHDVDTLKQLADKVAPLGIERFVLDDGWFKGRRGDNAGLGDWTVDYKIYPDGLSPVIDHVNSLGMEFGIWFEPEMVNPDSDLYRAHPDWVLGSENNEQLSFRNQLVLDLTRSEVVEYLYKAIDDILVEYPTIKYIKWDMNRDINHAGNFDGKPAVHQQTLALYRLIDRIKAAHPGLEIESCSSGGARVDYGVLAHTDRVWTSDSNDALDRLEIQRGCSFFFPSSVMGAHVGPRDCHITGRNVSIEMRAAVSMFGHMGIEMDPRELNDHEYNALKAAIALHKEHREFIHSADLYRLDSDDLSINFGLIDAQKTKALFAYNSVRETPRTAPNKLRFVGLDADAQYTLNLVWPVKFEEYRPSSIAAVNGQTFTGEALMQFGLQMPISFPQTSLIFELNKA
notes: mature ca. 80 kDa; E. coli Rosetta (DE3); GH36
On to B1, for which the Km amounted to 400 ± 30 µM, the Vmax is 320 µM/min, the kcat was 324 ± 3.5 s⁻¹ and the kcat/Km came to 820000 M⁻¹ s⁻¹.

B2: α-PsGal (Pseudoalteromonas sp. KMM 701; C494N) (protein)
chain: B1 chain with C494N
notes: as for B1
As to B2, the Km stood at 300 ± 5 µM and the Vmax is 24 µM/min.

The term Km denotes the concentration of substrate that gives half-maximal velocity. What is called Vmax is the top rate of the reaction or transport when substrate is in excess. For orientation: kcat means the number of substrate molecules converted per active site and unit of time at saturation. In general, kcat/Km refers to the second-order rate constant that governs catalysis at low substrate concentration.
